Data taken from the DeepSol protein solubility set.

Test: soluble on expression in E. coli; label from the status in PepcDB or PDB records

Sequence: MEYSDIRDRILLATLPNVPFDGWSGKALRLGAESAGFDREAADRAFPGGPAEAVGHFIDLANRMMEADLGARDLSGLKLPEKIHLAIKLRLERWAGDREAVRRGLALLSLPGHARLSLKSTYATVDGIWHAVGDRSVDFSFYTKRAELAAIYGATLLVWLEDTSEESAETWAFLDRRLEGVIRLRKARAKLRERMTHLPTLPRLLNPLDLVRKPFGLMRSMRMRLEHHHHHH
- soluble on expression in E. coli: soluble

Sequence: KERERLEEKLEDANERIAELVKLEERQRIARDLHDTLGQKLSLIGLKSDLARKLIYKDPEQAARELKSVQQTARTSLNEVRKIVSSMKGIRLKDELINIKQILEAADIMFIYEEEKWPENISLLNENILSMCLKEAVTNVVKHSQAKTCRVDIQQLWKEVVITVSDDGTFKGEENSFSKGHGLLGMRERLEFANGSLHIDTENGTKLTMAIPNNSK
- soluble on expression in E. coli: not soluble

Sequence: LNKWMKELSKTTSLDPVKPVDVLLTENDITIKNIRDMNRLRPFGTDFSRPIFEMDDLSVSSVKAIGQQKNHLKLTLGESNIAALFWQNGHLEPELQDEQPINILGSVQINEWNGNQSPQ
- soluble on expression in E. coli: not soluble

Sequence: MAHHHHHHMIMKKLIENNVIKLNYENFLTKYKLNSGNEQKDLSDEELYEHFIINTFNYSKPLGCLPPNISNIKEYYLDGINIFEVINYVNISERMYKFENITEEDDKENEDDSKEIFSHSEPDEKHDCEIKSRKNNKNSKISNNNKKDGNNIKSNKYRRFYRFLLYDGKSFIYAYEQEYNEIFTYLESNKYIYPKIILYNKPLIRRGAILLKKNQVIILFKGCIVSGNDTEDNEIEDFPIISESNNINSGVHQNIHDDLYTTRNTYDNKNMTDDSHNLIRKFYYADKGMEKEEYKTYYENTNNCGVLSNTNRSNEYYSRSSMHNNNNYSFNEYAKHNYKYDQNHVKKNIEYYYNKDKNCYITSIDYNNNNNNNNNSINNSNNEYTGNNYNNNNKGNHYYYHNIHNNHMHDTHNSKNYIGSNRYNTDKASYNYYNNHYKNKQHYIDPQRNNYYTHGINHDDYSKENYLNAFEYKNHNSYKEPLRNYSNDHPRNSYNKNKYNIFNENKRNSSSKNNRNSSSKNNRNSSNKNNRNSSKEYFKRNSNKFDNAYDNTYHDNNTRINHHSDFSRKNNDGFYRNNDNNYNNETYVKNHFSNEAKYNAGYQRLSDNLENRNRMNCENNNNYYSTYGHSDYNVNYNNKNNRNIPLSNLNEKNNHIPSNNYYTENYLPEKEGNRNILTNQINNYSINSVNNNFEQINPSTCNYNKNNVFPYNKEDDKNKFVEMKNVEEEYHNDNQERARKNSENSKKLIDLTEGFFSSEFFHKSYECNDVNKNSDIIILDD
- soluble on expression in E. coli: soluble

Sequence: MGSDKIHHHHHHMTEQITEIDTLVVGAGQAGVAMSEHLTRLDIPHLVLEKQGIAQAWRSGRWDSLVANGPAWHDRFPGMVFPDCPPDSFVGKEQVADYFAAYARSFNAPIRTGVEVYSAERLAGRPGFRIDTSQGVIEAQRIVAATGPFQRPVIPAIAPQSPAIQQLHSAHYFNPQQLPEGGVLVIGAGSSGVQIADELQRAGRAVWLSVGAHDRPPRRYRQRDFCWWLGVLGMWDAAANAPGKEHVTIAVSGARGGHTVDFRQLAHQGVTLVGQTRGFDGDKALFHPDLAENIRRGDASYLALLDAADAWVARNGMDLPEEPSAREFLPDPACVTDPLLSLNLAEAGIGTIIWATGYTTDYRWLKVNAFDDAQRPQHHRGVSTEPGVYFLGLPWLSRRGSTFIWGVWHDAKYIADQIAIQRQYQRYQPSC
- soluble on expression in E. coli: not soluble

Sequence: MTLLPHLATRLFGVPLAIDRPKLDVILSVLGPRVGLAGLAPPGDYTPPERNPVRGHAQIAVIPIHGTLVRRTVGLEAESGLASYTAIGEQLDAALADPGIAAILLDVDSPGGESGGVFDLADRIRVAAAIKPVWAAANDMAFSAAYALACAASRVFVSRTGGVGSIGVIAMHVDQSVKDAKDGVRYTAVFAGARKNDLNPHEPITDEAQAQLQAEVSRIYRLFVATVGSYRGLSAEAVTATEAGLFFGQDAVAAGLADAVGTFDDALAQLTASLSVPAPVASARTPSLNLQMDCSMNTQPDPAAVSVPAADAIGTTAQPPVVASPPAASVASHTDAVEIAQLCTLAGRTDLIAGFLEARATPERVRSQLLAARAEASPEIASRIDPHAQAVSADASHPASPRNPLLQAVKKRLGIQLEHHHHHH
- soluble on expression in E. coli: soluble

Sequence: GPGSMVRSSSSSSAPLWKNQGGGSATAGAVASTTSPWLLRQLALAHFHNGDIQESADAFEQLLRTAPWELTNPALIFYSTALWHLKSESALGSLAQRLTDAEPLSATTLCVVANAYSLIKDPRDALVMLKRAVQVAPTLAYAHALHGYELLGQDSKAEAEAEFKAALAVDASLYIAYAGLGERFMREEQIDKARGYYKEAVKLNPTPAIVNRFALTYHRQGKSLADLKTALRLYTESLERHPNNVTARRQRADVLLRLDQPMQALEELKALLVQCPGEAVVYVTLAECMVCLRRPHEALQHYQTAMHLDPRRESYVQGCIDQLVAANML
- soluble on expression in E. coli: soluble

Sequence: MGSDKIHHHHHHMMKHLTLWHTNDVHSHLEHWPRIFNFLKEKRTAADKENQSALFFDIGDFLDRVHPLTEGTNGLANTDLLNQLPYDVVTFGNNEGTTLAHEDLDKLYEHAVFPVVCCNFYTNKECTEQPDWVKSIVYKEIEQVKIAIIGATAPFRDYYEEMGWGIEEPISSIKKQVAGLDEDTDVVILLSHLGLPSDERIALEIPEVDVILGGHTHHLLETGKIEGNALLAAAGRWGEYIGKVDIELDENNQILTKTAMTFKTEDLPAAPNEANEIQGFFDKGRAELSEKVVAIPGKLAHNWFDDSEIAHILNEAVCEWTGAETFVMNAGIFMTDFEAGIVTDFDIHQMLPHPLNAIALTMSGEELEILIDGIYRKKAELQDIPLRGFGFRGEYFGTVLMERAGFDAENQVALFDNKPIDKTREYRIATHDTFVFAPFFPIVKQIKRKEVYTPELLRDILKWKLKKMYGQEEDK
- soluble on expression in E. coli: not soluble

Sequence: MGSGEPNPAGKKKKYLKAALYVGDLDPDVTEDMLYKKFRPAGPLRFTRICRDPVTRSPLGYGYVNFRFPADAEWALNTMNFDLINGKPFRLMWSQPDDRLRKSGVGNIFIKNLDKSIDNRALFYLFSAFGNILSCKVVCDDNGSKGYAYVHFDSLAAANRAIWHMNGVRLNNRQVYVGRFKFPEERAAEVRTRDRATFTNVFVKNIGDDIDDEKLKELFCEYGPTESVKVIRDASGKSKGFGFVRYETHEAAQKAVLDLHGKSIDGKVLYVGRAQKKIERLAELRRRFERLRLKEKSRPPGVPIYIKNLDETINDEKLKEEFSSFGSISRAKVMMEVGQGKGFGVVCFSSFEEATKAVDEMNGRIVGSKPLHVTLGQARRRC
- soluble on expression in E. coli: soluble

Sequence: MTKTMIRLASEQDAEKLQQLMHEAFTPLRELGIDWPSVNANLDAVKENIDKNTTFVMTIDDEIISTITVRYPWGSVKSISGYPFVWWFATNPEYEGKGYGSQLLTYVEEAFLRDTLKSAAVTLGTSARLHPWLLKIYEKRGYEIYSEHENDDGDLGVIMRKVLIPERFDETILGQPPF
- soluble on expression in E. coli: not soluble

Sequence: MELKFVVPDMAETFGKLGYAGEGEILTEGYGRNTVVIGRSYHLYSSKQRADDIEVVVAAEAGEKDFDQDQPLKAVNPHLVAKGYAIENRGFTDYVLYVDDLVKA
- soluble on expression in E. coli: not soluble

Sequence: MPSGLFMDLLPFLLDANLSATNPPAIPHWWKRQPLIPNLLSQELKNYLKLNVKEKNIQIADQVIIDETAGEVVIGANTRICHGAVIQGPVVIGANCLIGNWICPYISRHLLSLNPLQARCRRYSRGERLEHHHHHH
- soluble on expression in E. coli: not soluble

Sequence: MSIIGRFKDIMSANINALLDKAENPEKMVDQYLRNMNSDLAKVKAETAAVMAEEQRAKREYHECQADMEKMESYAMKALQAGNESDARKFLERKTSLESKLSELQAANQIAATNAAQMRKMHDKLVSDIGELEARKNMIKAKWAVAKTQERMNKLGASVSSTSQSMSAFGRMEDKVNKALDQANAMAELNSAPQDDMADLSAKYDTGGSSQVDDELAALKAKMMLDKLEHHHHHH
- soluble on expression in E. coli: not soluble

Sequence: MGSDKIHHHHHHMTTDLEQQFEFLTEIERLREVERQNLLLDGSRVENSAEHSWHLALYALVFAPYAPSDVSITRVIEMLLLHDIVEIDVGDHPIDEPTDWEAVAQAEDRAQRRIFGLLPEAQGHRLQALWQEFEAAHTADARFAKSLDYCQPIFQTLCAVSPPADHLRVVRENLTTGRATSLRERFPEAYAAACSLIDGQTVSDPDFAARLAFLSEADRLKSVLRASRIASGTRYENSAEHSWHIMLYGWILAPHSLSEVDVSRVLKMLLLHDLVEIDAGDVPIHSNLDAAALRQIEETEKAAAERIFGLLPDAQAKDCLMIWQEFEAAQSADAVFAKSIDRVQPVLLNIATGGGSWVAYDVTLPQLETRVGVKIARGAPKVWDHVRALLLPWFTAQGRL
- soluble on expression in E. coli: not soluble

Sequence: MGSDKIHHHHHHMKIDDMDAFVAVIRCQSTNLAAEALQLTQPAITRRVQNFEEDLGATLLDRNTKPLKPTPMGLRVYEQCKAILREIDSLRELVANDGAPSGTLRLGVPQTLGDVVLLDALAQIREAYPQLRTQVTSGWGSSLIARMENGELDAAAALFPPGKIFPEGIASQSIARMPLRVVTAKGSAGKRSYKLKDCYTRGWVLNPDGCGFRAGLQRALSEQGLSLSINLETFGTELQLGLVANGQGLGLVPEPLLQTSRHRSALDVLNISDFKPQVDLWLFHPRYLGNLQEPVELFGEVAGHRLLG
- soluble on expression in E. coli: not soluble

Sequence: MRNILKATTLENKFPLFTVENGCIVSKDADITVAFRVELPELFTVTAAEYEAIHSAWNKAVKVLPDYSIVHKQDWFIKENYAPDIQKDDLSFLSRSFERHFNERPFLNHTCYLFLTKTTKEHSRMQSNFSTLCRGFLVPKEIRDRETVTKFLEAVGQFESIMNDSGFITLTRLSSDEITGTRETAGIVEKYFSLSQTDTTTLKDISLGADEMKIGDNILCLHTLSDAEDMPGKVGTDTRYEKLSTDRSDCRLSFASPVGVLLSCNHIYNQYIFIDDHTENLKQFEKMARNMHSLSKYSRANQINKSWIEEYLNEAHSQGLISVRCHCNIMAWSDDRDELKHIKNDVGSQLALMECKPRHNTTDTPTLFWAGIPGNQADFPAEESFYTFIEQALCLFTEETNYKSSLSPFGIKMVDRVTGKPLHIDISDLPMKRGIITNRNKFILGPSGSGKSFFTNHMVRQYYEQNAHVLLVDTGNSYLGLCEMINRKTHGEDGIYFTYTTENPIAFNPFYVEDGVFDIEKKESIKTLILTLWKRDDEAPTRAEEVALSNAVSSYIGLITKDCSVTPCFNTFYEYVRNDYRAHLQEKNVREKDFDIDNFLNVLEPYYKGGEYDYLLNSDKELDLLHKRFIVFELDNIKDHKILFPITTIIIMEVFINKMRKLKGIRKLILIEEAWKAIASANMADYIKYLYKTVRKYFGEAIVVTQEVEDIISSPIVKESIINNSDCKILLDQRKYLNKFDSIQNLLGLTDKERSQVLSINLANHPNRKYKEVWIGLGGTQSAVYATEVSLDEYFTYTTEETEKMELFALSEKLGGNLELAIKRLAESKRNPEK
- soluble on expression in E. coli: not soluble

Sequence: MTEGKRLQQMELPQMKSIWIDEDQEMEKLYGFQVRQRFMNGPSTDSDEDADEDLGIVLVDSKKLALPNKNNIKLPPLPNYMTINPNINSNHKSLTNKKKNFLGMFKKKDLLSRRHGSAKTAKQSSISTPFDFHHISHANGKREDNPLESHEEKHDVESLVKFTSLAPQPRPDSNVSSKYSNVVMNDSSRIVSSSTIATTMDSHHDGNETNNTPNGNKQLDSPTDLEMTLEDLRNYTFPSVLGDSVSEKTNPSSPSVSSFSGKFKPRELSALHTPELGNCFNVDQSLNSPGNRISVDDVLKFYYQCSETSTPRNT
- soluble on expression in E. coli: soluble

Sequence: MSYSPSLKEIIAILQKYTSKNYQSNCKTRPDGKLELSLNGVFEEIVKTPGKTRYVTHKQLDQKLKDFKQDLMVELHDTFATKTDLKESEARINQKLEALIQIVMVQGEQIKVHGEQINKLTQAVEKQGEKIEAQGQQIQKVNETLNFVVESLGSIHKRLDSMEGRLDSMENRLDKLESK
- soluble on expression in E. coli: soluble
